Assay results reported in article PMC4294777.

Molecular target: Klp5-3FLAG (fission yeast) (UniProt O14343)
Experiment: co-IP; protein extracts (4 mg or 8 mg) of metaphase-arrested cut9-665 cells (36°C, 2.5 hours) added to protein A Dynabeads coated with anti-Flag antibodies; blotted with anti-Flag and anti-Myc

Sequence of UniProt O14343 (O14343 whole entry): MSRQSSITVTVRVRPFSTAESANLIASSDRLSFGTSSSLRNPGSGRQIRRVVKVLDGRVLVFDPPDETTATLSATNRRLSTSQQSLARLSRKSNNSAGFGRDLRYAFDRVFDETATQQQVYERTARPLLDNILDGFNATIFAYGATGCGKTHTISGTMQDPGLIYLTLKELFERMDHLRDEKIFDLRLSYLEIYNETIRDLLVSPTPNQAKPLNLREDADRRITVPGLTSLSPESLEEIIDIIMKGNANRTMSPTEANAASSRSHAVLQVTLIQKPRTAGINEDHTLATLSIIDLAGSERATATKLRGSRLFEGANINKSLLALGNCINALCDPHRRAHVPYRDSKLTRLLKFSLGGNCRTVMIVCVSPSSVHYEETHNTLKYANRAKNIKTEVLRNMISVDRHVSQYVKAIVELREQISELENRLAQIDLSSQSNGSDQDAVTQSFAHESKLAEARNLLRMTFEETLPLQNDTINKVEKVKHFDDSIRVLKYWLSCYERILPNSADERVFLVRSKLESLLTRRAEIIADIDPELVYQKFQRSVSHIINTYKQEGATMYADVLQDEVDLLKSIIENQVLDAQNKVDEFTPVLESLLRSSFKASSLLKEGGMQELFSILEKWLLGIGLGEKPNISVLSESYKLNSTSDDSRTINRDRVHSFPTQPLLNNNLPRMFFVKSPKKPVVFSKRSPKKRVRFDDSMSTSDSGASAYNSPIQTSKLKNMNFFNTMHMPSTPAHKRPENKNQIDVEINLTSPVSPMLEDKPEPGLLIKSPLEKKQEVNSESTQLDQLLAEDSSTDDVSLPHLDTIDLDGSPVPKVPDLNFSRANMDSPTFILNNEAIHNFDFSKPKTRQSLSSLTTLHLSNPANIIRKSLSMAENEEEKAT

reduction of binding compared to Alp7: > 70%
Substance: Alp7-LA6-Myc (from UniProt Q9URY2 1-474) (natural protein)
